The labels stand for the following.
B1: full-length phytochrome B (phyB), wild type, in vitro translated [modified: 35S-methionine labelled; 35S-methionine labelled] [Arabidopsis thaliana] / GAD-PIF3, in vitro translated [modified: 35S-methionine labelled … (parent)
chain 1: MVSGVGGSGGGRGGGRGGEEEPSSSHTPNNRRGGEQAQSSGTKSLRPRSNTESMSKAIQQYTVDARLHAVFEQSGESGKSFDYSQSLKTTTYGSSVPEQQITAYLSRIQRGGYIQPFGCMIAVDESSFRIIGYSENAREMLGIMPQSVPTLEKPEILAMGTDVRSLFTSSSSILLERAFVAREITLLNPVWIHSKNTGKPFYAILHRIDVGVVIDLEPARTEDPALSIAGAVQSQKLAVRAISQLQALPGGDIKLLCDTVVESVRDLTGYDRVMVYKFHEDEHGEVVAESKRDDLEPYIGLHYPATDIPQASRFLFKQNRVRMIVDCNATPVLVVQDDRLTQSMCLVGSTLRAPHGCHSQYMANMGSIASLAMAVIINGNEDDGSNVASGRSSMRLWGLVVCHHTSSRCIPFPLRYACEFLMQAFGLQLNMELQLALQMSEKRVLRTQTLLCDMLLRDSPAGIVTQSPSIMDLVKCDGAAFLYHGKYYPLGVAPSEVQIKDVVEWLLANHADSTGLSTDSLGDAGYPGAAALGDAVCGMAVAYITKRDFLFWFRSHTAKEIKWGGAKHHPEDKDDGQRMHPRSSFQAFLEVVKSRSQPWETAEMDAIHSLQLILRDSFKESEAAMNSKVVDGVVQPCRDMAGEQGIDELGAVAREMVRLIETATVPIFAVDAGGCINGWNAKIAELTGLSVEEAMGKSLVSDLIYKENEATVNKLLSRALRGDEEKNVEVKLKTFSPELQGKAVFVVVNACSSKDYLNNIVGVCFVGQDVTSQKIVMDKFINIQGDYKAIVHSPNPLIPPIFAADENTCCLEWNMAMEKLTGWSRSEVIGKMIVGEVFGSCCMLKGPDALTKFMIVLHNAIGGQDTDKFPFPFFDRNGKFVQALLTANKRVSLEGKVIGAFCFLQIPSPELQQALAVQRRQDTECFTKAKELAYICQVIKNPLSGMRFANSLLEATDLNEDQKQLLETSVSCEKQISRIVGDMDLESIEDGSFVLKREEFFLGSVINAIVSQAMFLLRDRGLQLIRDIPEEIKSIEVFGDQIRIQQLLAEFLLSIIRYAPSQEWVEIHLSQLSKQMADGFAAIRTEFRMACPGEGLPPELVRDMFHSSRWTSPEGLGLSVCRKILKLMNGEVQYIRESERSYFLIILELPVPRKRPLSTASGSGDMMLMMPY
chain 2: MPLFELFRLTKAKLESAQDRNPSPPVDEVVELVWENGQISTQSQSSRSRNIPPPQANSSRAREIGNGSKTTMVDEIPMSVPSLMTGLSQDDDFVPWLNHHPSLDGYCSDFLRDVSSPVTVNEQESDMAVNQTAFPLFQRRKDGNESAPAASSSQYNGFQSHSLYGSDRARDLPSQQTNPDRFTQTQEPLITSNKPSLVNFSHFLRPATFAKTTNNNLHDTKEKSPQSPPNVFQTRVLGAKDSEDKVLNESVASATPKDNQKACLISEDSCRKDQESEKAVVCSSVGSGNSLDGPSESPSLSLKRKHSNIQDIDCHSEDVEEESGDGRKEAGPSRTGLGSKRSRSAEVHNLSERRRRDRINEKMRALQELIPNCNKVDKASMLDEAIEYLKSLQLQVQIMSMASGYYLPPAVMFPPGMGHYPAAAAAMAMGMGMPYAMGLPDLSRGGSSVNHGPQFQVSGMQQQPVAMGIPRVSGGGIFAGSSTIGNGSTRDLSGSKDQTTTNNNSNLKPIKRKQGSSDQFCGSS

In this test the parent is B1. Briefly: in vitro co-immunoprecipitation. As to conditions: with GAD-PIF3, in vitro translated [modified: 35S-methionine labelled, GAD-PIF3 as bait, phyB as prey, 35S-met in vitro translated proteins.
Setting [1] is: phyB in Pfr form, parent: 13, read off a plot.
Setting [2] is: phyB in Pr form, parent: 1, read off a plot.
Setting [3] is: phyB in Pfr form, parent: 17, read off a plot.
The mark [4] stands for this setting: phyB in Pfr form, parent: 9.1, read off a plot.
The mark [5] stands for this setting: phyB in Pfr form, parent: 3.8, read off a plot.

On to chain 1 V264E, for which the screen value (relative to wild-type phyB Pr = 1) was 1.9 under setting [1] and 2 under setting [2].
Consider chain 1 S367P, for which the screen value (relative to wild-type phyB Pr = 1) under setting [3] was determined as 4.8 and the screen value (relative to wild-type phyB Pr = 1) under setting [2] was 2.4.
Take chain 1 L256C: the screen value (relative to wild-type phyB Pr = 1) was found to be 2.8 under setting [1] and 1 under setting [2].
As to chain 1 V273L, the screen value (relative to wild-type phyB Pr = 1) is, setting by setting: under setting [3], 3.9; under setting [2], 2.
With chain 1 I308T, the screen value (relative to wild-type phyB Pr = 1) is, setting by setting: under setting [3], 2.3; under setting [2], 1.
chain 1 G348D: the screen value (relative to wild-type phyB Pr = 1) reads like this: under setting [1], 2.6; under setting [2], 1.
In the same order, the values of chain 1 S343Y are 1.7 and 1.4.
Take chain 1 P411L: the screen value (relative to wild-type phyB Pr = 1) is, setting by setting: under setting [4], 4.1; under setting [2], 1.
In the same order, the values of chain 1 S134G are 3.1 and 1.6.
Turning to chain 1 R415W, the screen value (relative to wild-type phyB Pr = 1) by setting is: under setting [5], 0.58; under setting [2], 0.45.
In the same order, the values of chain 1 C119Y are 0.9 and 0.45.
On to chain 1 C345R, for which the screen value (relative to wild-type phyB Pr = 1) is, setting by setting: under setting [3], 5.1; under setting [2], 2.

The values above are taken from publication PMC2621353, “Residues Clustered in the Light-Sensing Knot of Phytochrome B are Necessary for Conformer-Specific Binding to Signaling Partner PIF3” (PLoS Genetics, 2009).
